According to patent US20260250318A1, “COMPOSITIONS AND METHODS FOR CROSSING THE BLOOD BRAIN BARRIER” (VOYAGER THERAPEUTICS, INC., priority 2022, published 2026):
Changes are numbered by the printed parent chain. Read-outs that look alike come from different tables or passages of the source.

T1: ALPL transcript variant 2 that lacks the ER signal (Homo sapiens, UniProt P05186)
T1 construct: expressed in transfected cells; host or cells: HEK 293T
T1 sequence (P05186 1-469 isoform P05186-3): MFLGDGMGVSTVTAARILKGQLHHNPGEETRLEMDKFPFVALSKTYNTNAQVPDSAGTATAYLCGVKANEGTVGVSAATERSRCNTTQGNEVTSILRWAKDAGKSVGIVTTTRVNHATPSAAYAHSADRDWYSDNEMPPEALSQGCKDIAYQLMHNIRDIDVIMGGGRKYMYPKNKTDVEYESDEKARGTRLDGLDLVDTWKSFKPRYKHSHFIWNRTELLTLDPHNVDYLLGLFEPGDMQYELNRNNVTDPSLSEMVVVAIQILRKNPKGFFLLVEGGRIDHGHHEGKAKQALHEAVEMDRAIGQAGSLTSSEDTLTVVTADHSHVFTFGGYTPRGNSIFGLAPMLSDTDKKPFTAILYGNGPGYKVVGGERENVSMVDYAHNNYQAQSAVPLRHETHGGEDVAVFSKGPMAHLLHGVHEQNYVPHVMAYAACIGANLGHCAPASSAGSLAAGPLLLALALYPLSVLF

B1: TTM-001: AAV9 capsid variant comprising SPHSKA (SEQ ID NO: 941) in loop IV (protein)
chain 1: MAADGYLPDWLEDNLSEGIREWWALKPGAPQPKANQQHQDNARGLVLPGYKYLGPGNGLDKGEPVNAADAAALEHDKAYDQQLKAGDNPYLKYNHADAEFQERLKEDTSFGGNLGRAVFQAKKRLLEPLGLVEEAAKTAPGKKRPVEQSPQEPDSSAGIGKSGAQPAKKRLNFGQTGDTESVPDPQPIGEPPAAPSGVGSLTMASGGGAPVADNNEGADGVGSSSGNWHCDSQWLGDRVITTSTRTWALPTYNNHLYKQISNSTSGGSSNDNAYFGYSTPWGYFDFNRFHCHFSPRDWQRLINNNWGFRPKRLNFKLFNIQVKEVTDNNGVKTIANNLTSTVQVFTDSDYQLPYVLGSAHEGCLPPFPADVFMIPQYGYLTLNDGSQAVGRSSFYCLEYFPSQMLRTGNNFQFSYEFENVPFHSSYAHSQSLDRLMNPLIDQYLYYLSKTINGSGSPHSKAQNQQTLKFSVAGPSNMAVQGRNYIPGPSYRQQRVSTTVTQNNNSEFAWPGASSWALNGRNSLMNPGPAMASHKEGEDRFFPLSGSLIFGKQGTGRDNVDADKVMITNEEEIKTTNPVATESYGQVATNHQSAQAQAQTGWVQNQGILPGMVWQDRDVYLQGPIWAKIPHTDGNFHPSPLMGGFGMKHPPPQILIKNTPVPADPPTAFNKDKLNSFITQYSTGQVSVEIEWELQKENSKRWNPEIQYTSNYYKSNNVEFAVNTEGVYSEPRPIGTRYLTRNL
chain 2: GSGSPHSKAQNQQT
B2: TTM-002: AAV9 capsid variant comprising HDSPHK (SEQ ID NO: 2) in loop IV (protein)
chain 1: B1 chain 1 with S454H, G455D, S459K, K460S, A461G
chain 2: GHDSPHKSGQNQQT

Columns and labels:
[1] = test system: HEK 293T cells transfected with pCMV6 negative control; assay type: cell-based; details: for Luciferase Activity (fold change relative to pCMV6 transfected cells): pCMV6 transfected cells (negative control, reference); for Luciferase Activity (RLU): Table 30, pCMV6 transfected cells
Description: Briefly, a transduction assay was performed in that HEK 293T cells were transfected via calcium phosphate transfection with a plasmid expressing ALPL, an AAVR positive control, or a pCMV6 negative control (250 ng or 500 ng of plasmid). AAVR is a universal AAV entry factor involved in AAV transduction. […] At 24-hours post-transduction, GFP expression and luciferase activity were measured to quantify and observe AAV cellular transduction. […] The TTM-002, TTM-006, TTM-018, and TTM-019 capsid variants all comprised the SPH motif immediately subsequent to position 455, numbered relative to SEQ ID NO: 138 and a positive residue in one of the next three residues subsequent to the SPH motif.
Three isoforms of ALPL exist, isoform 1 (Alkaline phosphatase, placental-like 2 (ALPPL2), NM_031313, which is incorporated by reference herein), isoform 2 (alkaline phosphatase, placental (ALPP), NM_001632, which is incorporated by reference herein), and isoform 3 (alkaline phosphatase, intestinal (ALPLI), NM_001631, which is incorporated by reference herein), that can also be expressed on cell surfaces via a GPI-anchor. […] The transduction assay described above was repeated with the three isoforms. HEK 293T cells were transfected via calcium phosphate transfection with a plasmid expressing ALPL, isoform 1 of ALPL, isoform 2 of ALPL, isoform 3 of ALPL, an AAVR positive control, or a pCMV6 negative control. At 24 hours post-transfection, the HEK 293T cells expressing the ALPL receptor were transduced with an AAV particle comprising the TTM-001 capsid variant or the TTM-002 capsid variant, expressing a Luc2-GFP payload. At 24-hours post-transduction, luciferase activity (RLU) was measured to quantify AAV cellular transduction.
(§1) To determine if deletion of the endoplasmic reticulum (ER) localization signal of ALPL affected transduction of the TTM-001 and TTM-002 capsid variants, HEK 293T cells were transfected via calcium phosphate transfection with a plasmid expressing ALPL, ALP with a deletion of the ER localization signal (ALPL transcript variant 2 that lacks the ER signal (NM_001127501, which is incorporated by reference herein)), or a pCMV6 negative control. At 24 hours post-transfection, the HEK 293T cells expressing the ALPL receptor were transduced with an AAV particle comprising the TTM-001 capsid variant, the TTM-002 capsid variant, or an AAV9 capsid control, expressing a GFP payload. At 24-hours post-transduction, luciferase activity (RLU) was measured to quantify AAV cellular transduction. Data was normalized to fold change in luciferase activity (RLU) compared to the pCMV6 control.
To determine if the TTM-001 and TTM-002 capsid variants could bind to both the human ALPL protein (NM_000478.6, which is incorporated by reference herein) and the mouse ALPL ortholog (NM_001287172.1, which is incorporated by reference herein), HEK 293T cells were transfected via calcium phosphate transfection with a plasmid expressing human ALPL, the murine ortholog of ALPL, or a pCMV6 negative control. At 24 hours post-transfection, the HEK 293T cells expressing the ALPL receptor were transduced with an AAV particle comprising the TTM-001 capsid variant, the TTM-002 capsid variant, or an AAV9 control capsid protein, expressing a Luc2-GFP payload. At 24-hours post-transduction, luciferase activity (RLU) was measured to quantify AAV cellular transduction.
AAV entry factor involved in AAV transduction), or a pCMV6 negative control.

[2] = target: T1, ALPL transcript variant 2 that lacks the ER signal; experiment: Transduction assay in HEK 293T cells expressing ALPL with deletion of the ER localization signal; assay type: cell-based; details: luciferase, relative to pCMV6
Description: as §1

[3] = Table 33, Cells transfected with pCMV6 (reference)
[4] = Table 34, Cells transfected with pCMV6 (reference)

Row | Molecule | Luciferase Activity (fold change relative to pCMV6 transfected cells) ([1]; Table 27) [fold] | Luciferase Activity (RLU) [1] | Fold change in luciferase activity relative to the pCMV6 control cells [1, 3] [fold] | Fold change in luciferase activity relative to the pCMV6 control cells [1, 4] [fold] | increase in transduction in cells expressing ALPL with deleted ER localization signal [2] | Luciferase Activity (fold change relative to pCMV6 transfected cells) ([1]; Table 28) [fold] | Fold change in luciferase activity relative to the pCMV6 control cells ([1]; Table 35, Receptor pCMV6 (reference)) [fold]
1 | B1 | 1 | 5,212 RLU | 1 | 1 | did not occur |  | 
2 | B2 | 1 | 2,894 RLU | 1 | 1 | did not occur | 1 | 1.0
